For one protein, Km, kcat and kcat/Km results are on record in paper PMC10589136, “Prenylation of dimeric cyclo-L-Trp-L-Trp by the promiscuous cyclo-L-Trp-L-Ala prenyltransferase EchPT1” (Applied Microbiology and Biotechnology, 2023).

Common to all, as to assay: purified protein
Substrate in data set [1]: CC(C)=CCOP(=O)(O)OP(=O)(O)O
The note with it: 1 mM tetratryptomycin A (3) as prenyl acceptor, 5 mM CaCl2, Tris-HCl pH 7.5, 37 °C, 30 min, formation of 3a2.

Substrate in data set [2]: O=C1N[C@@H](Cc2cn(C34C[C@H]5C(=O)N[C@@H](Cc6c[nH]c7ccccc67)C(=O)N5C3Nc3ccccc34)c3ccccc23)C(=O)N[C@H]1Cc1c[nH]c2ccccc12
The note with it: 1 mM DMAPP, 5 mM CaCl2, Tris-HCl pH 7.5, 37 °C, 30 min, formation of monoprenylated 4a1.

Substrate in data set [3]: O=C1N[C@@H](Cc2c[nH]c3ccccc23)C(=O)N2C3Nc4ccccc4C3(C34C[C@H]5C(=O)N[C@@H](Cc6c[nH]c7ccccc67)C(=O)N5C3Nc3ccccc34)C[C@@H]12
The note with it: 1 mM DMAPP, 5 mM CaCl2, Tris-HCl pH 7.5, 37 °C.

Where [4] appears, read: 20 min, formation of diprenylated 5a2.
The mark [5] stands for this setting: 30 min, formation of diprenylated 3a2.

B1: EchPT1 (Aspergillus ruber) (protein)
chain: MPSEVLTSYYDYPTHDQEAWWRDTGPLFGRFLKGAGYDVHTQYQYLVFFIKNILPSLGPYPARWRSTITPTGLPIEYSLNFQLNSRPLLRIGFEPLSRFSGTPQDPYNKIAAADLLNQLSKLQLHEFDTQLFNHFTNEFELSKSESESLQKQGGINGKSTVRSQTAFGFDLKGGRVAVKGYAFAGLKNRATGTPVGQLISNSIRNLEPQMHCWDSFSILNSYMEESDGWNEYSFVSWDCVDIERSRLKLYGVHNAVTWDKVKEMWTLGGRIENNATIKTGLELLQHMWSLLQINEGDRDYKGGFAADNGGKTLPIIWNYELNKGSPHPAPKFYFPVHGENDLQVSKSISEFFTHLGWQDHARQYPHLLRQIYPNQNISQTERLQAWISFAYNERTGPYLSVYYYSAERPPWGSDQVK
B1: the Km (as a rule, the substrate concentration at which the rate is half of its maximum) in “purified protein [1]” turned out to be 50 ± 7 µM; in “purified protein [2]” it was 250 ± 30 µM; in the data set “purified protein [3]” (setting [4]), 50 ± 5 µM; in “purified protein [3]” (setting [5]), 60 ± 7 µM. Besides, the turnover number (kcat) – broadly, the maximal rate divided by the concentration of active sites – in the data set “purified protein [1]” is 0.03 ± 0.002 s⁻¹; in “purified protein [2]”, 0.14 ± 0.01 s⁻¹; in the data set “purified protein [3]” (setting [4]) it was 0.03 ± 0.001 s⁻¹; in the data set “purified protein [3]” (setting [5]), 0.05 ± 0.0003 s⁻¹. In addition, the catalytic efficiency (kcat/Km) – broadly, the turnover number divided by the Michaelis constant – in the data set “purified protein [1]” is 600 M⁻¹ s⁻¹; in the data set “purified protein [2]”, 560 M⁻¹ s⁻¹; in “purified protein [3]” (setting [4]) it was 600 M⁻¹ s⁻¹; in “purified protein [3]” (setting [5]), 833 M⁻¹ s⁻¹.
